Starred links: 1 amine or outer side, 2 acyl side, 3 side chain; linkers in the order of their positions; H or OH if unused. Positions of bridges follow the written chain, without caps; N, C: chain ends. Non-standard residues stand in square brackets, D forms with d. Residues, ends and D or L forms follow the SMILES beside them. *: point of attachment. X9 = CCOCc1nc2c(NC(=O)[C@H](CCCCNC(=O)OCc3ccc(NC(=O)[C@H](CCCNC(N)=O)NC(=O)[C@@H](NC(=O)Cn4cc(CCC(=O)*)nn4)C(C)C)cc3)NC(C)=O)nc3ccccc3c2n1CC(C)(C)O; X11 = CCCOc1nc(NC(=O)OCc2ccc(NC(=O)[C@H](CCCNC(N)=O)NC(=O)[C@@H](NC(=O)Cn3cc(CCC(=O)*)nn3)C(C)C)cc2)c2[nH]c(=O)n(Cc3ccc(OCCN(C)C)nc3)c2n1; X12 = CCOCc1nc2c(NC(=O)OCCN(C)C(=O)OCc3ccc(NC(=O)[C@H](CCCNC(N)=O)NC(=O)[C@@H](NC(=O)Cn4cc(CCC(=O)*)nn4)C(C)C)cc3)nc3ccccc3c2n1CC(C)(C)O; X7 = CCOCc1nc2c(NC(=O)CCCNC(=O)OCc3ccc(NC(=O)[C@H](CCCNC(N)=O)NC(=O)[C@@H](NC(=O)Cn4cc(CCC(=O)*)nn4)C(C)C)cc3)nc3ccccc3c2n1CC(C)(C)O; X8 = CCOCc1nc2c(NC(=O)OCc3ccc(NC(=O)[C@H](CCCNC(N)=O)NC(=O)C4(C(=O)*)CCC4)cc3)nc3ccccc3c2n1CC(C)(C)O; Resiquimod = CCOCc1nc2c(N*)nc3ccccc3c2n1CC(C)(C)O; 1Nal = N[C@@H](Cc1cccc2ccccc12)C(=O)O; TBMB = c1c(C[*:1])cc(C[*:3])cc1C[*:2]; X5 = O=C(CCc1cn(CCCN[*:1])nn1)[*:2]; Glutaryl = O=C(CCCC(=O)[*:2])[*:1]; Tle = CC(C)(C)[C@H](N)C(=O)O; βAla = NCCC(=O)O; Sar = CNCC(=O)O
Tests used:
Plasma stability, dog = format: in vitro ADME; conditions: pH 7.4; dog plasma, 2 μM, 37° C.; read-out: T1/2 (dog)
Description: (§1) The pooled frozen mouse, rat, dog, monkey or human plasma is thawed in a water bath at 37° C. prior to experiment. Plasma is centrifuged at 4000 rpm for 5 min and the clots are removed if any. […] For positive controls, 100 μM intermediate solution is prepared by diluting 20 μL of the stock solution with 180 μL 45% MeOH/H2O. […] For compounds I-7 to […]-17, […]-22, and […]-33, at each time point (0, 1, 2, 4, 6 and 24 hr), reactions were stopped by removing the plates from water bath and 200 μL 20 mM NH4OAC mix well first and then adding 800 μL of ice-cold stop solution (200 ng/mL Labetalol, 200 ng/mL Tolbutamide, 500 ng/mL N6-Ben and 40 mM DBAA in 100% Methanol). […] Sample plates were vortexed immediately on a plate shaker at 800 rpm for 10 min and then centrifuged at 4,000 rpm for 10 min. An aliquot of supernatant (200 μL) is transferred from each well before submitting to LC-MS/MS analysis. The percentage of test compound remaining at the individual time points relative to the 0 hour sample is calculated using following equation: Percent Remaining=100×(PAR at appointed incubation time/PAR at T0 time) where PAR is the peak area ratio of analyte versus internal standard (IS).

Plasma stability, mouse = format: in vitro ADME; conditions: pH 7.4
Description: as §1

Plasma stability, human = format: in vitro ADME; conditions: pH 7.4
Description: as §1

Plasma stability, rat = format: in vitro ADME; conditions: pH 7.4
Description: as §1

Plasma stability, cyno = format: in vitro ADME; conditions: cynomolgus monkey, pH 7.4
Description: as §1

Blood stability, mouse = format: in vitro ADME, CD-1 mouse; conditions: male
Description: CD-1 mouse blood (n≥2, male, fasted overnight) is collected from animals housed at an internal facility. (EDTA-K2 is used as anticoagulant)
The test compounds and positive control stock solutions are prepared to 10 mM in DMSO or ultrapure water. Control compounds bisacodyl, enalapril and propantheline known to be metabolised by blood are also incubated alongside each batch of test compounds I-7, I-22, I-24, I-25, I-27, and I-29 to I-33. The dosing solutions of test compounds and controls are prepared by diluting the stock solution with 45% MeOH/H2O to achieve 100 uM. Test compound solutions (final incubation concentration=2 μM) are incubated with blood (final DMSO concentration≤1%) at six different time points (0, 1, 2, 4, 6 and 24 hours) in duplicate (n=2). The reaction is terminated by adding 100 uL ultra-pure water, mixing well, then adding 800 uL of 100% methanol containing 200 ng/mL tolbutamide and 200 ng/mL labetalol as internal standards. Samples are then vortexed and centrifuged at 3200×g for 20 minutes. Following centrifugation, the concentration of test compound in the supernatant is determined semi-quantitatively by LC-MS/MS. The percentage of test compound remaining at the individual time points relative to the 0 hour sample is then reported. The percent remaining of test compound after incubation in blood is calculated using following equation: Percent Remaining=100×(PAR at appointed incubation time/PAR at T0 time) where PAR is the peak area ratio of analyte versus internal standard (IS).

Row | SMILES | half-life at 2 μM (Plasma stability, dog) [min] | half-life at 2 μM (Plasma stability, mouse; mouse plasma, 2 μM, 37° C., read-out: T1/2 (mouse)) [min] | half-life at 2 μM (Plasma stability, human; human plasma, 2 μM, 37° C., read-out: T1/2 (human)) [min] | half-life at 2 μM (Plasma stability, rat; rat plasma, 2 μM, 37° C., read-out: T1/2 (rat)) [min] | half-life at 2 μM (Plasma stability, cyno; cyno plasma, 2 μM, 37° C., read-out: T1/2 (cyno)) [min] | half-life at 2 μM (Plasma stability, mouse; mouse, plasma) [min] | half-life at 2 μM (Plasma stability, human; human, plasma) [min] | half-life at 2 μM (Blood stability, mouse; CD-1, mouse) [min] | half-life at 2 μM (Plasma stability, rat; rat, plasma) [min] | half-life at 2 μM (Plasma stability, cyno; plasma) [min] | half-life at 2 μM (Blood stability, mouse; CD-1 mouse blood, 2 μM, read-out: T1/2 (mouse)) [min]
1 | CCCOc1nc(NC(=O)OCc2ccc(NC(=O)[C@H](CCCNC(N)=O)NC(=O)[C@@H](NC(=O)Cn3cc(CCC(=O)NCCC(=O)N(C)CC(=O)N(C)CC(=O)N(C)CC(=O)N(C)CC(=O)N(C)CC(=O)N(C)CC(=O)N(C)CC(=O)N(C)CC(=O)N(C)CC(=O)N(C)CC(=O)N[C@@H](C)C(=O)N[C@H]4CSCc5cc6cc(c5)CSC[C@H](NC(=O)[C@@H](C)NC(=O)[C@H](Cc5cccc7ccccc57)NC(=O)[C@H](CCC(=O)O)NC(=O)[C@H](CC(N)=O)NC(=O)[C@@H](C)NC4=O)C(=O)N[C@@H](CCC(=O)O)C(=O)N[C@@H](CC(=O)O)C(=O)N[C@@H](Cc4ccccc4)C(=O)N[C@@H](Cc4ccc(O)cc4)C(=O)N[C@@H](CC(=O)O)C(=O)N[C@@H](C(C)(C)C)C(=O)N[C@H](C(N)=O)CSC6)nn3)C(C)C)cc2)c2[nH]c(=O)n(Cc3ccc(OCCN(C)C)nc3)c2n1 [I-18] ({X11-βAla}-[Sar][Sar][Sar][Sar][Sar][Sar][Sar][Sar][Sar][Sar]AC[dA]NE[1Nal][dA]CEDFYD[Tle]C-NH2; linker 12-18-25 via TBMB) | < 120 | < 120 | < 120 | < 120 | < 120 | – | – | – | – | – | –
2 | CCOCc1nc2c(NC(=O)OCCN(C)C(=O)OCc3ccc(NC(=O)[C@H](CCCNC(N)=O)NC(=O)[C@@H](NC(=O)Cn4cc(CCC(=O)NCCC(=O)N(C)CC(=O)N(C)CC(=O)N(C)CC(=O)N(C)CC(=O)N(C)CC(=O)N(C)CC(=O)N(C)CC(=O)N(C)CC(=O)N(C)CC(=O)N(C)CC(=O)N[C@@H](C)C(=O)N[C@H]5CSCc6cc7cc(c6)CSC[C@H](NC(=O)[C@@H](C)NC(=O)[C@H](Cc6cccc8ccccc68)NC(=O)[C@H](CCC(=O)O)NC(=O)[C@H](CC(N)=O)NC(=O)[C@@H](C)NC5=O)C(=O)N[C@@H](CCC(=O)O)C(=O)N[C@@H](CC(=O)O)C(=O)N[C@@H](Cc5ccccc5)C(=O)N[C@@H](Cc5ccc(O)cc5)C(=O)N[C@@H](CC(=O)O)C(=O)N[C@@H](C(C)(C)C)C(=O)N[C@H](C(N)=O)CSC7)nn4)C(C)C)cc3)nc3ccccc3c2n1CC(C)(C)O [I-32] ({X12-βAla}-[Sar][Sar][Sar][Sar][Sar][Sar][Sar][Sar][Sar][Sar]AC[dA]NE[1Nal][dA]CEDFYD[Tle]C-NH2; linker 12-18-25 via TBMB) | – | – | – | – | – | < 120 | > 1440 | < 120 | < 120 | > 1440 | –
3 | CCOCc1nc2c(NC(=O)CCCNC(=O)OCc3ccc(NC(=O)[C@H](CCCNC(N)=O)NC(=O)[C@@H](NC(=O)Cn4cc(CCC(=O)NCCC(=O)N(C)CC(=O)N(C)CC(=O)N(C)CC(=O)N(C)CC(=O)N(C)CC(=O)N(C)CC(=O)N(C)CC(=O)N(C)CC(=O)N(C)CC(=O)N(C)CC(=O)N[C@@H](C)C(=O)N[C@H]5CSCc6cc7cc(c6)CSC[C@H](NC(=O)[C@@H](C)NC(=O)[C@H](Cc6cccc8ccccc68)NC(=O)[C@H](CCC(=O)O)NC(=O)[C@H](CC(N)=O)NC(=O)[C@@H](C)NC5=O)C(=O)N[C@@H](CCC(=O)O)C(=O)N[C@@H](CC(=O)O)C(=O)N[C@@H](Cc5ccccc5)C(=O)N[C@@H](Cc5ccc(O)cc5)C(=O)N[C@@H](CC(=O)O)C(=O)N[C@@H](C(C)(C)C)C(=O)N[C@H](C(N)=O)CSC7)nn4)C(C)C)cc3)nc3ccccc3c2n1CC(C)(C)O [I-27] ({X7-βAla}-[Sar][Sar][Sar][Sar][Sar][Sar][Sar][Sar][Sar][Sar]AC[dA]NE[1Nal][dA]CEDFYD[Tle]C-NH2; linker 12-18-25 via TBMB) | – | – | – | – | – | < 120 | > 1440 | 120 to 360 | > 1440 | > 1440 | –
4 | CCOCc1nc2c(NC(=O)OCc3ccc(NC(=O)[C@H](CCCNC(N)=O)NC(=O)C4(C(=O)NCCCn5cc(CCC(=O)NCCC(=O)N(C)CC(=O)N(C)CC(=O)N(C)CC(=O)N(C)CC(=O)N(C)CC(=O)N(C)CC(=O)N(C)CC(=O)N(C)CC(=O)N(C)CC(=O)N(C)CC(=O)N[C@@H](C)C(=O)N[C@H]6CSCc7cc8cc(c7)CSC[C@H](NC(=O)[C@@H](C)NC(=O)[C@H](Cc7cccc9ccccc79)NC(=O)[C@H](CCC(=O)O)NC(=O)[C@H](CC(N)=O)NC(=O)[C@@H](C)NC6=O)C(=O)N[C@@H](CCC(=O)O)C(=O)N[C@@H](CC(=O)O)C(=O)N[C@@H](Cc6ccccc6)C(=O)N[C@@H](Cc6ccc(O)cc6)C(=O)N[C@@H](CC(=O)O)C(=O)N[C@@H](C(C)(C)C)C(=O)N[C@H](C(N)=O)CSC8)nn5)CCC4)cc3)nc3ccccc3c2n1CC(C)(C)O [I-29] (X8-[X5][βAla][Sar][Sar][Sar][Sar][Sar][Sar][Sar][Sar][Sar][Sar]AC[dA]NE[1Nal][dA]CEDFYD[Tle]C-NH2; linker 14-20-27 via TBMB) | – | – | – | – | – | > 1440 | > 1440 | < 120 | 360 to 1440 | > 1440 | –
5 | CCOCc1nc2c(NC(=O)[C@H](CCCCNC(=O)OCc3ccc(NC(=O)[C@H](CCCNC(N)=O)NC(=O)[C@@H](NC(=O)Cn4cc(CCC(=O)NCCC(=O)N(C)CC(=O)N(C)CC(=O)N(C)CC(=O)N(C)CC(=O)N(C)CC(=O)N(C)CC(=O)N(C)CC(=O)N(C)CC(=O)N(C)CC(=O)N(C)CC(=O)N[C@@H](C)C(=O)N[C@H]5CSCc6cc7cc(c6)CSC[C@H](NC(=O)[C@@H](C)NC(=O)[C@H](Cc6cccc8ccccc68)NC(=O)[C@H](CCC(=O)O)NC(=O)[C@H](CC(N)=O)NC(=O)[C@@H](C)NC5=O)C(=O)N[C@@H](CCC(=O)O)C(=O)N[C@@H](CC(=O)O)C(=O)N[C@@H](Cc5ccccc5)C(=O)N[C@@H](Cc5ccc(O)cc5)C(=O)N[C@@H](CC(=O)O)C(=O)N[C@@H](C(C)(C)C)C(=O)N[C@H](C(N)=O)CSC7)nn4)C(C)C)cc3)NC(C)=O)nc3ccccc3c2n1CC(C)(C)O [I-24] ({X9-βAla}-[Sar][Sar][Sar][Sar][Sar][Sar][Sar][Sar][Sar][Sar]AC[dA]NE[1Nal][dA]CEDFYD[Tle]C-NH2; linker 12-18-25 via TBMB) | – | – | – | – | – | 360 to 1440 | > 1440 | 360 to 1440 | 360 to 1440 | > 1440 | –
6 | CCOCc1nc2c(NC(=O)CCCC(=O)NCCC(=O)N(C)CC(=O)N(C)CC(=O)N(C)CC(=O)N(C)CC(=O)N(C)CC(=O)N(C)CC(=O)N(C)CC(=O)N(C)CC(=O)N(C)CC(=O)N(C)CC(=O)N[C@@H](C)C(=O)N[C@H]3CSCc4cc5cc(c4)CSC[C@H](NC(=O)[C@@H](C)NC(=O)[C@H](Cc4cccc6ccccc46)NC(=O)[C@H](CCC(=O)O)NC(=O)[C@H](CC(N)=O)NC(=O)[C@@H](C)NC3=O)C(=O)N[C@@H](CCC(=O)O)C(=O)N[C@@H](CC(=O)O)C(=O)N[C@@H](Cc3ccccc3)C(=O)N[C@@H](Cc3ccc(O)cc3)C(=O)N[C@@H](CC(=O)O)C(=O)N[C@@H](C(C)(C)C)C(=O)N[C@H](C(N)=O)CSC5)nc3ccccc3c2n1CC(C)(C)O [I-25] ({Resiquimod-Glutaryl-βAla}-[Sar][Sar][Sar][Sar][Sar][Sar][Sar][Sar][Sar][Sar]AC[dA]NE[1Nal][dA]CEDFYD[Tle]C-NH2; linker 12-18-25 via TBMB) | – | – | – | – | – | > 1440 | > 1440 | – | > 1440 | > 1440 | > 1440

Source: US20200283482A1, “BICYCLIC PEPTIDE LIGAND PRR-A CONJUGATES AND USES THEREOF” (BicycleRD Limited, priority 2017, published 2020)
